Data from patent US20240409663A1 (CONCEPT TO MEDICINE BIOTECH, published 2024).

B1: 18C1D9 chimeric mAb (antibody, V domains shown)
VH: QVQLQQSGAELVRPGASVTLSCKASGYTFSDYEMHWVKQTPVHGLEWIGAIDPETGGTAYNQKFKGKATLTADKSSSTAYMELRSLTSEDSAVYYCTRYYSYAYWGQGTLVTVSA
VL: DVVMTQSPLSLPVSLGDQASISCRSRQSLVHSNGNTYLQWYLQKPGQSPKLLIYKVSNRFSGVPDRFSGSGSGTDFTLKISRVEAEDLGVYFCFQSIHVPYTFGGGTKLEKK
B2: 171F9C5 chimeric mAb (antibody, V domains shown)
VH: QVQLQQSGAELVRPGASVTLSCKASGYTFTDYEIHWVKQTPVHGLEWIGAIDPETDNTAYSQKFKGKAILTADKSSSTAYMELRSLTSEDSAVYYCTRYYSYAYWGQGTLVTVSA
VL: DVVMTQTPLSLPVSLGDQASISCRSSQSPVHRNGNTYLHWYLQKPGQSPKLLIFKVSNRFSGVPDRFSGSGSGTDFTLKISRVAAEDLGVYFCSQTTHVPYTFGGGTKLEIK
B3: 163E7D12 chimeric mAb (antibody, V domains shown)
VH: QVQLQQSGAELVRPGASVTLSCKASGYTFTDYEMHWVKQTPVHGLEWIGAIGPETGSTAYNQRFKGKAIVTADKSSSTAYMELRSLTSEDSAVYYCTRYYSFAYWGQGTLVTVSA
VL: DVVMTQTPLSLPVSLGGQASISCRSSQSLVHSNGNTYLQWYLQKPGQSPKLLIFKVSNRFSGVPDRFSGSGSGTDFTLKISRVEAEDLGVYFCFQSIHVPYTFGGGTKLEIK
B4: 52H5D3B8-6#-VH3+VL3 (antibody, V domains shown)
VH: QVQLVQSGAEVKKPGASVKVSCKALGYTFTDYEMHWVKQAPGQGLEWIGAIHPGSGGTAYNQKFKGRVTLTADTSTSTVYMELSSLRSEDTAVYYCTRYYSYAYWGQGTLVTVSS
VL: DIVMTQTPLSLSVTPGQPASISCRSSQSLVHSNGNTYLQWYLQKPGQSPKLLIYKVSNRFSGVPDRFSGSGSGTDFTLKISRVEAEDVGVYYCFQSIHVPYTFGGGTKLEIK
notes: humanized
B5: 52H5D3B8-6#-VH4+VL2 (antibody, V domains shown)
VH: QVQLVQSGAEVKKPGASVKVSCKALGYTFTDYEMHWVKQAPGQGLEWIGAIHPGSGGTAYNQKFKGRATMTADKFTSTVYMELSSLRSEDTAVYYCTRYYSYAYWGQGTLVTVSS
VL: DIVMTQTPLSLSVTPGQPASISCRSSQSLVHSNGNTYLQWYLQKPGQSPQLLIYKVSNRFSGVPDRFSGSGSGTDFTLKISRVEAEDVGVYFCFQSIHVPYTFGGGTKLEIK
notes: humanized
B6: 52H5D3B8-18#-VH2+VL3 (antibody, V domains shown)
VH: QVQLVQSGAEVKKPGASVKVSCKASGYTFTRYEMHWVRQAPGQGLEWIGAIHPGSGGTAYNSKFKGRVTMTADTSTSTVYMELSSLRSEDTAVYYCTRYYSYAYWGQGTLVTVSS
VL: DIVMTQTPLSLSVTPGQPASISCRSSQSLVHSNGNTYLQWYLQKPGQSPKLLIYKVSNRYSGVPDRFSGSGSGTDFTLKISRVEAEDVGVYYCVESIHVPYTFGGGTKLEIK
B7: 52H5D3B8-6#-VH3+VL4 (antibody, V domains shown)
VH: QVQLVQSGAEVKKPGASVKVSCKALGYTFTDYEMHWVKQAPGQGLEWIGAIHPGSGGTAYNQKFKGRVTLTADTSTSTVYMELSSLRSEDTAVYYCTRYYSYAYWGQGTLVTVSS
VL: DIVMTQTPLSLSVTPGQPASISCRSSQSLVHSNGNTYLQWYLQKPGQSPKLLIYKVSNRFSGVPDRFSGSGSGTDFTLKISRVEAEDVGVYFCFQSIHVPYTFGGGTKLEIK
notes: humanized
B8: 52H5D3B8-6#-VH4+VL3 (antibody, V domains shown)
VH: QVQLVQSGAEVKKPGASVKVSCKALGYTFTDYEMHWVKQAPGQGLEWIGAIHPGSGGTAYNQKFKGRATMTADKFTSTVYMELSSLRSEDTAVYYCTRYYSYAYWGQGTLVTVSS
VL: DIVMTQTPLSLSVTPGQPASISCRSSQSLVHSNGNTYLQWYLQKPGQSPKLLIYKVSNRFSGVPDRFSGSGSGTDFTLKISRVEAEDVGVYYCFQSIHVPYTFGGGTKLEIK
notes: humanized
B9: 52H5D3B8-6#-VH4+VL1 (antibody, V domains shown)
VH: QVQLVQSGAEVKKPGASVKVSCKALGYTFTDYEMHWVKQAPGQGLEWIGAIHPGSGGTAYNQKFKGRATMTADKFTSTVYMELSSLRSEDTAVYYCTRYYSYAYWGQGTLVTVSS
VL: DIVMTQTPLSLSVTPGQPASISCRSSQSLVHSNGNTYLQWYLQKPGQSPQLLIYKVSNRFSGVPDRFSGSGSGTDFTLKISRVEAEDVGVYYCFQSIHVPYTFGGGTKLEIK
notes: humanized
B10: 52H5D3B8-6#-VH4+VL4 (antibody, V domains shown)
VH: QVQLVQSGAEVKKPGASVKVSCKALGYTFTDYEMHWVKQAPGQGLEWIGAIHPGSGGTAYNQKFKGRATMTADKFTSTVYMELSSLRSEDTAVYYCTRYYSYAYWGQGTLVTVSS
VL: DIVMTQTPLSLSVTPGQPASISCRSSQSLVHSNGNTYLQWYLQKPGQSPKLLIYKVSNRFSGVPDRFSGSGSGTDFTLKISRVEAEDVGVYFCFQSIHVPYTFGGGTKLEIK
notes: humanized
B11: 172B4E9 chimeric mAb (antibody, V domains shown)
VH: QVQLQQSGAELVRPGASVTLSCKASGYTFTDYEIHWVKQTPVHGLEWIGAIDPATGDTAYTQKFKGKAILTADTSSNTVYMELRGLTSEDSAVHFCTRFYSYAYWGQGTLVTVSA
VL: DVVMTQTPLSLPVSLGDQASISCRSSQSLVHTNGHTYLQWYLQKSGQSPRLLIFKVSNRFSGVPDRFSGSGSGTDFKLKISRVEAEDLGVYFCSQSTHVPYTFGGGTKLEIK
B12: 152E9F7 chimeric mAb (antibody, V domains shown)
VH: QVQLQQSGAELVRPGASVTLSCKASGYTFTDYEIHWVKQTPVHGLEWIGAIDPETGDTAYTQKFKGKAILTADKSSNTVYMELRSLTSEDSAVYYCTRFYSYAYWGQGTLVTVSA
VL: DVVMTQTPLSLPVSLGDQASISCRSSQSLVHTNGHTYLQWYLQKSGQSPKLLIYKVSNRFSGVPDRFSGSGSGTDFTLKISRVEAEDLGVYFCSQSTHVPYTFGGGTKLEIK

How the values were obtained:
human GPC3 on cells [1] = target: T1, human GPC3 on cells (human, UniProt P51654 25-554); test: FACS, GPC3-CHOK1 cells
T1 construct: whole, on cells; over-expressed on CHOK1 cells or endogenous on HEPG2, Hep3B and Huh-7 hepatocellular carcinoma cells; the cell line is named under assay; also called GPC3-CHOK1 cells; human GPC3 over-expressed CHOK1 cells
Protocol: Cell-based binding: FACS was used to evaluate the binding activity of chimeric mAbs (18C1D9, 52H5D3B8, 163E7D12, 172B4E9, 152E9F7 and 171F9C5) with comparison to a known GPC3 antibody GC33 (Chugai Pharmaceutical) on human GPC3 over-expressed CHOK1 cells.
Briefly, GPC3-CHOK1 cells were washed by FACS buffer and divided to each well with 3-fold serially diluted chimeric mAbs or GC33 mAb starting at 5 μg/mL at 4° C. for 40 mins. […] Samples were washed twice with FACS buffer.

human GPC3 on cells [2] = target: T1, human GPC3 on cells; test: FACS, HEPG2 cells
Protocol: (§1) To evaluate the antigen binding property, the humanized antibodies were analyzed for their binding to human GPC3 over-expressed CHOK1 cells, HEPG2 cells, Hep3B cells and Huh-7 cells by FACS. Briefly, GPC3-CHOK1 cells, HEPG2 cells, Hep3B cells and Huh-7 cells were firstly incubated with Fc blocking reagent at 4° C. for 15 mins. Cells were washed by FACS buffer and divided to each well with 4-fold serially diluted humanized antibodies starting at 10 μg/mL at 4° C. for 60 mins. Cells were washed by FACS buffer and fixed with 2% PFA at RT for 15 mins. […] The 16 humanized antibodies were separated into two plates.

human GPC3 on cells [3] = target: T1, human GPC3 on cells; test: FACS, Hep3B cells
Protocol: as §1

human GPC3 on cells [4] = target: T1, human GPC3 on cells; test: FACS, Huh-7 cells
Protocol: as §1

human GPC3 on cells [5] = target: T1, human GPC3 on cells; test: FACS, GPC3-CHOK1 cells; remark: listed apart in the source
Protocol: as §1

[6] = target: T2, human GPC3-his tag protein (human, UniProt P51654 25-559, limits assumed); test: SPR Biacore 8K, mAb captured, affinity ranking
T2 construct: recombinant soluble antigen used as analyte in all Biacore runs; also called recombinant GPC3 protein; rhGPC3-His; not shown: His tag
Protocol: To evaluate antigen binding activity, the chimeric antibody's affinity was measured by Biacore 8K. A serial dilution of human GPC3-his tag protein was injected over captured chimeric antibody 52H5D3B8-6 #-VH+VL for 3 mins at a flow rate of 30 μl/min. The antigen was allowed to dissociate for 720 s. Among the multi detection doses, two concentrations with most close affinity to the chimeric antibody's affinity were chosen for the 16 humanized antibodies' affinity detection.

[7] = target: T2, human GPC3-his tag protein; test: SPR Biacore, mAb captured on CM5, GPC3-his dilution series (full kinetics)
Protocol: The binding of the humanized antibodies to recombinant GPC3 protein (human GPC3-his tag) was tested by Biacore using a capture method. 52H5D3B8-6 #-V+VL, 52H5D3B8-6 #-VH1+VL1, 52H5D3B8-6 #-VH1+VL3, 52H5D3B8-6 #-V1+VL4, 52H5D3B8-6 #-VH2+VL4, 52H5D3B8-6 #-VH3+VL1, 52H5D3B8-6 #-VH3+VL3 mAbs were captured using CM5 sensor chip. A serial dilution of human GPC3-his tag protein was injected over captured antibody for 2 mins at a flow rate of […]. The antigen was allowed to dissociate for 360 s. All the experiments were carried out on a Biacore T200.

human GPC3 on cells [8] = target: T1, human GPC3 on cells; test: FACS, GPC3-CHOK1 cells; remark: listed apart in the source
Protocol: To evaluate the antigen binding property, the affinity maturated antibodies were analyzed for their binding to human GPC3 over-expressed CHOK1 cells by FACS as previously described.

human GPC3 on cells [9] = target: T1, human GPC3 on cells; test: cell-based or functional assay
human GPC3 on cells [10] = target: T1, human GPC3 on cells; test: cell-based or functional assay; remark: listed apart in the source

Row | Binder | EC50 (human GPC3 on cells [1]) [µg/mL] | EC50 (human GPC3 on cells [2]) [µg/mL] | EC50 (human GPC3 on cells [3]) [µg/mL] | EC50 (human GPC3 on cells [4]) [µg/mL] | EC50 (human GPC3 on cells [5]) [µg/mL] | Kd [6] [nM] | koff [6] [s⁻¹] | kon [6] [M⁻¹ s⁻¹] | further results
1 | B1 | 0.238 |  |  |  |  |  |  |  | 
2 | B2 | 0.142 |  |  |  |  |  |  |  | 
3 | B3 | 0.17 |  |  |  |  |  |  |  | 
4 | B4 |  | 0.0426 | 0.0682 | 0.0351 | 0.0408 | 0.721 | 0.000514 | 714000 | Kd [7]: 0.898 nM; koff [7]: 0.000538 s⁻¹; kon [7]: 600000 M⁻¹ s⁻¹
5 | B5 |  | 0.0435 | 0.0627 | 0.0326 | 0.0425 | 1.05 | 0.000674 | 642000 | 
6 | B6 |  |  |  |  |  |  |  |  | EC50 (human GPC3 on cells [8]): 0.177 nM; EC50 of ADCC signaling (Jurkat-hCD16a-NFAT luciferase reporter), HEPG2 cells (human GPC3 on cells [9]): 0.202 nM; EC50 of ADCC signaling (Jurkat-hCD16a-NFAT luciferase reporter), Huh-7 cells (human GPC3 on cells [9]): 0.48 nM; EC50 of ADCC cytotoxicity (primary NK cells, LDH), HEPG2 cells (human GPC3 on cells [10]): 0.149 nM; EC50 of ADCC cytotoxicity (primary NK cells, LDH), Huh-7 cells (human GPC3 on cells [10]): 0.0826 nM
7 | B7 |  | 0.0422 | 0.0629 | 0.0322 | 0.0419 | 0.725 | 0.000516 | 711000 | 
8 | B8 |  | 0.0391 | 0.0511 | 0.0287 | 0.0379 | 0.847 | 0.000601 | 709000 | 
9 | B9 |  | 0.04 | 0.0565 | 0.0306 | 0.0387 | 1.01 | 0.000646 | 643000 | 
10 | B10 |  | 0.0367 | 0.047 | 0.0259 | 0.0367 | 0.857 | 0.000593 | 692000 | 
11 | B11 | 0.269 |  |  |  |  |  |  |  | 
12 | B12 | 0.14 |  |  |  |  |  |  |  | 
